Experimental data reported in PMC7108717, “Dynamics in the murine norovirus capsid revealed by high-resolution cryo-EM” (PLoS Biology, 2020).

Target: the molecule itself
Experiment: cryo-EM structure; purified virions in EM buffer (10 mM HEPES pH 7.6, 200 mM NaCl, 5 mM MgCl2, 1 mM KCl, 1 mM CaCl2), icosahedral reconstruction and focussed classification of P domain dimers

B1: murine norovirus (MNV-1 strain CW1P3) major structural protein VP1, wild type (natural protein)
chain: MRMSDGAAPKANGSEASGQDLVPAAVEQAVPIQPVAGAALAAPAAGQINQIDPWIFQNFVQCPLGEFSISPRNTPGEILFDLALGPGLNPYLAHLSAMYTGWVGNMEVQLVLAGNAFTAGKVVVALVPPYFPKGSLTTAQITCFPHVMCDVRTLEPIQLPLLDVRRVLWHATQDQEESMRLVCMLYTPLRTNSPGDESFVVSGRLLSKPAADFNFVYLTPPIERTIYRMVDLPVIQPRLCTHARWPAPVYGLLVDPSLPSNPQWQNGRVHVDGTLLGTTPISGSWVSCFAAEAAYKFQSGTGEVATFTLIEQDGSAYVPGDRAAPLGYPDFSGQLEIEVQTETTKTGDKLKVTTFEMILGPTTNADQAPYQGRVFASVTAAASLDLVDGRVRAVPRSIYGFQDTIPEYNDGLLVPLAPPIGPFLPGEVLLRFRTYMRQIDTADAAAEAIDCALPQEFVSWFASNAFTVQSEALLLRYRNTLTGQLLFECKLYNEGYIALSYSGSGPLTFPTDGIFEVVSWVPRLYQLASVGSLATGRMLKQ
notes: major capsid protein VP1 (ORF2) of murine norovirus MNV-1 strain CW1P3, as it stands in infectious virions; N-terminal region, S domain, P domain (P1, P2); modelled from D20 (A-type), S17 (B-type), V30 (C-type); Capsid: 90 dimers (AB and CC) in T = 3 symmetry; also called wtMNV VP1; MNV VP1; copies: 180
stoichiometry N: 180 VP1 chains in the capsid
